Tested on: Escherichia coli TOP10
Assay: shrunken log2 fold change of peptide-encoding DNA abundance (4.5 h post-induction vs induction); higher = less antimicrobial activity (less host growth inhibition)
Settings: time post-induction: 4.5 h; library: site-saturation at positions 5, 18, 19, 20
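Also: peptides expressed intracellularly from a pBAD plasmid library in pooled LB shake-flask culture, induced with 0.3% L-arabinose, DNA abundance read by NGS, three biological replicates, DESeq2 with apeglm shrinkage.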

| Sequence | shrunken log2 fold change |
| --- | --- |
| RRIRTRPPRLPRPRPRPLAMPRP | 0.128 |
| RRIRFRPPRLPRPRPRPISRPRP | 0.0107 |
| RRIRNRPPRLPRPRPRPWTEPRP | -0.249 |
| RRIRLRPPRLPRPRPRPEIVPRP | 0.0118 |
| RRIRLRPPRLPRPRPRPGLRPRP | 0.234 |
| RRIRCRPPRLPRPRPRPKATPRP | 0.0985 |
| RRIRIRPPRLPRPRPRPVKSPRP | -0.0366 |
| RRIRIRPPRLPRPRPRPQSRPRP | -0.0532 |
| RRIRVRPPRLPRPRPRPKLTPRP | -0.0989 |
| RRIRFRPPRLPRPRPRPTTPPRP | 0.352 |
| RRIRRRPPRLPRPRPRPIECPRP | -0.00663 |
| RRIRVRPPRLPRPRPRPDTMPRP | -0.177 |
| RRIRYRPPRLPRPRPRPLKTPRP | 0.0308 |
| RRIRPRPPRLPRPRPRPHKVPRP | -0.429 |
| RRIRWRPPRLPRPRPRPLAAPRP | 0.994 |
| RRIRPRPPRLPRPRPRPSHEPRP | 0.0992 |
| RRIRDRPPRLPRPRPRPGQYPRP | -0.0267 |
| RRIRRRPPRLPRPRPRPYNTPRP | -0.436 |
| RRIRRRPPRLPRPRPRPFNRPRP | -0.557 |
| RRIRCRPPRLPRPRPRPQPGPRP | 0.437 |
| RRIRMRPPRLPRPRPRPNCLPRP | -0.00154 |
| RRIRPRPPRLPRPRPRPGPNPRP | 0.51 |
| RRIRYRPPRLPRPRPRPHDAPRP | -0.27 |
| RRIRGRPPRLPRPRPRPAECPRP | 0.196 |
| RRIRFRPPRLPRPRPRPVQLPRP | -0.189 |

| Sequence | shrunken log2 fold change |
| --- | --- |
| RRIRQRPPRLPRPRPRPHRGPRP | 0.0502 |
| RRIRRRPPRLPRPRPRPCHPPRP | -0.0611 |
| RRIRTRPPRLPRPRPRPNVEPRP | -0.00865 |
| RRIRCRPPRLPRPRPRPRSDPRP | -0.101 |
| RRIRGRPPRLPRPRPRPHAHPRP | 0.895 |
| RRIRTRPPRLPRPRPRPAIYPRP | -0.372 |
| RRIRRRPPRLPRPRPRPPPMPRP | 0.959 |
| RRIRPRPPRLPRPRPRPWECPRP | -0.0846 |
| RRIRHRPPRLPRPRPRPLCAPRP | -0.0531 |
| RRIRIRPPRLPRPRPRPPVIPRP | -0.108 |
| RRIRTRPPRLPRPRPRPVNAPRP | -0.189 |
| RRIRFRPPRLPRPRPRPYCHPRP | -0.687 |
| RRIRQRPPRLPRPRPRPDQPPRP | -0.0438 |
| RRIRKRPPRLPRPRPRPCFSPRP | -0.51 |
| RRIRFRPPRLPRPRPRPTYRPRP | -8.67e-05 |
| RRIRIRPPRLPRPRPRPHIMPRP | -1.41 |
| RRIRHRPPRLPRPRPRPAMAPRP | 0.126 |
| RRIRPRPPRLPRPRPRPDNIPRP | -0.406 |
| RRIRYRPPRLPRPRPRPANIPRP | -0.0107 |
| RRIRPRPPRLPRPRPRPTNFPRP | 0.221 |
| RRIRGRPPRLPRPRPRPNLRPRP | 0.283 |
| RRIRDRPPRLPRPRPRPTAAPRP | 0.457 |
| RRIRHRPPRLPRPRPRPYWTPRP | 0.0019 |
| RRIRHRPPRLPRPRPRPCEFPRP | -0.324 |
| RRIRRRPPRLPRPRPRPQAFPRP | 0.0653 |

| Sequence | shrunken log2 fold change |
| --- | --- |
| RRIRKRPPRLPRPRPRPTNMPRP | -0.155 |
| RRIRGRPPRLPRPRPRPVGDPRP | 0.802 |
| RRIRQRPPRLPRPRPRPVKHPRP | -0.629 |
| RRIRLRPPRLPRPRPRPCATPRP | 0.331 |
| RRIRMRPPRLPRPRPRPEKAPRP | 1.52 |
| RRIRPRPPRLPRPRPRPECQPRP | 0.126 |
| RRIRYRPPRLPRPRPRPNFVPRP | -0.0161 |
| RRIRQRPPRLPRPRPRPHFYPRP | -0.229 |
| RRIRYRPPRLPRPRPRPPAWPRP | -0.0773 |
| RRIRPRPPRLPRPRPRPVQNPRP | -0.234 |
| RRIRDRPPRLPRPRPRPATHPRP | 0.335 |
| RRIRHRPPRLPRPRPRPRLTPRP | -0.176 |
| RRIRFRPPRLPRPRPRPTFSPRP | -0.0425 |
| RRIRARPPRLPRPRPRPMIRPRP | -0.388 |
| RRIRSRPPRLPRPRPRPDDAPRP | 0.162 |
| RRIRKRPPRLPRPRPRPSDWPRP | 0.288 |
| RRIRNRPPRLPRPRPRPFMKPRP | -0.0163 |
| RRIRARPPRLPRPRPRPEWDPRP | 1.13 |
| RRIRIRPPRLPRPRPRPHHPPRP | -0.629 |
| RRIRFRPPRLPRPRPRPWWMPRP | -0.168 |
| RRIRMRPPRLPRPRPRPLERPRP | 0.00972 |
| RRIRSRPPRLPRPRPRPNASPRP | 0.233 |
| RRIRRRPPRLPRPRPRPYGRPRP | -0.0338 |
| RRIRARPPRLPRPRPRPQQKPRP | 0.153 |
| RRIRERPPRLPRPRPRPIWLPRP | -0.0129 |

| Sequence | shrunken log2 fold change |
| --- | --- |
| RRIRFRPPRLPRPRPRPYYIPRP | -0.794 |
| RRIRQRPPRLPRPRPRPQWTPRP | -0.126 |
| RRIRHRPPRLPRPRPRPHSIPRP | -0.318 |
| RRIRWRPPRLPRPRPRPCEFPRP | -0.0211 |
| RRIRARPPRLPRPRPRPSHQPRP | -0.138 |
| RRIRERPPRLPRPRPRPVFTPRP | -0.541 |
| RRIRNRPPRLPRPRPRPAMKPRP | 0.284 |
| RRIRCRPPRLPRPRPRPSPNPRP | -0.102 |
| RRIRKRPPRLPRPRPRPRLHPRP | 0.312 |
| RRIRVRPPRLPRPRPRPHDQPRP | 0.134 |
| RRIRDRPPRLPRPRPRPDRSPRP | 0.0975 |
| RRIRTRPPRLPRPRPRPSLGPRP | -0.229 |
| RRIRFRPPRLPRPRPRPSCKPRP | -0.901 |
| RRIRKRPPRLPRPRPRPDAPPRP | 1.46 |
| RRIRARPPRLPRPRPRPWMGPRP | 0.0382 |
| RRIRARPPRLPRPRPRPSVDPRP | 0.125 |
| RRIRQRPPRLPRPRPRPFYEPRP | -0.413 |
| RRIRRRPPRLPRPRPRPWVWPRP | 0.00495 |
| RRIRLRPPRLPRPRPRPAAWPRP | 0.32 |
| RRIRGRPPRLPRPRPRPGTKPRP | 0.652 |
| RRIRERPPRLPRPRPRPNACPRP | -0.00102 |
| RRIRGRPPRLPRPRPRPYLWPRP | 0.146 |
| RRIRNRPPRLPRPRPRPKVDPRP | 0.147 |
| RRIRWRPPRLPRPRPRPALSPRP | -0.0314 |
| RRIRMRPPRLPRPRPRPVMSPRP | 0.134 |

| Sequence | shrunken log2 fold change |
| --- | --- |
| RRIRDRPPRLPRPRPRPDRHPRP | -0.278 |
| RRIRFRPPRLPRPRPRPDPIPRP | 0.159 |
| RRIRVRPPRLPRPRPRPVYAPRP | -0.00846 |
| RRIRRRPPRLPRPRPRPKNPPRP | 0.124 |
| RRIRCRPPRLPRPRPRPRSSPRP | -0.138 |
| RRIRMRPPRLPRPRPRPTVKPRP | -0.0616 |
| RRIRDRPPRLPRPRPRPEWCPRP | 0.272 |
| RRIRRRPPRLPRPRPRPFQYPRP | -0.0414 |
| RRIRQRPPRLPRPRPRPNPQPRP | 0.129 |
| RRIRQRPPRLPRPRPRPTWCPRP | 0.171 |
| RRIRRRPPRLPRPRPRPCEWPRP | -0.0585 |
| RRIRGRPPRLPRPRPRPFCVPRP | 0.392 |
| RRIRVRPPRLPRPRPRPTKTPRP | 0.0337 |
| RRIRGRPPRLPRPRPRPHFHPRP | 0.603 |
| RRIRNRPPRLPRPRPRPREHPRP | 0.0287 |
| RRIRKRPPRLPRPRPRPIAFPRP | -0.0784 |
| RRIRGRPPRLPRPRPRPIHLPRP | -0.0773 |
| RRIRVRPPRLPRPRPRPSYFPRP | -0.131 |
| RRIRARPPRLPRPRPRPLCIPRP | -0.143 |
| RRIRGRPPRLPRPRPRPHYNPRP | -0.265 |
| RRIRVRPPRLPRPRPRPEFLPRP | 0.0805 |
| RRIRERPPRLPRPRPRPPIHPRP | -0.502 |
| RRIRPRPPRLPRPRPRPVYNPRP | 0.88 |
| RRIRVRPPRLPRPRPRPEDCPRP | -0.0557 |
| RRIRPRPPRLPRPRPRPKRLPRP | 0.285 |

Source: the supplement of paper PMC9112550, “Optimization of the antimicrobial peptide Bac7 by deep mutational scanning” (BMC Biology, 2022)
